Measurements taken from the domain aggregation screens of Martell et al. (2025).

Experiment: soluble fraction after stress (log2 fold change); higher = more stays soluble; pooled small domains, quantitative proteomics
Details: stress: 75 degC
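Further: 20 min heating vs room temperature control held 20 min.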

Row | Sequence | soluble fraction (log2)
1 | HMELEQLKSQLTGFLKANREQIFTAQNLADGLRMTDSQGYKQVVNALNASVRDGDVIDIKNGYQYNKN | 0.0444
2 | HMSGEVLTAVVPETASGERLDKVLPQIFPPYSRSQLQTWLKEGRVTLDREIPAARLAVIGGETLRLEVPSL | -0.112
3 | HMLKRLTVEFSAEMPKKMTSEQKEELASVLSEDPRPAYQNDENREYGLDYGEFSVKFKVKDGVLTVTSVTE | -0.0802
4 | HMYEINEIIRERRLKKGLTQAQVAKYLGVSAPAVNKWEKGTTYPDLVLLPALARLLDTDLTTLLSF | -1.46
5 | HMGMTAPIPGVVLKVSVLPGQKVERGDELLTIEAMKMFNVMRSPSSGTIATVHIKDGDRVVQGQPLVTFA | -0.555
6 | HMERNAEDFAAKYQEIYQDMFRFALYTLKNRQEAEDVVSETVLDAWKGIEGLKNESAFSAWMFRILVNK | 0.126
7 | HMDIDLGAVEEQAVKGSGPGGQKMNKTSSGVLLRYRLGEELVLVKWTRERQHSLNRFLALRELVDEIEAR | 0.976
8 | HMGGELLSLRRIGTLTGISYPTLLRYVARYGEQIPQTGTGRSRRFPPAAVPVFQELRATRGRAPRATA | -0.104
9 | HMNVDSLVGSEARVTAEIDNRKETGTAMVNGQEWTARAESDEEIYPVGTIVEIRKIQGVKLIVSTH | -0.394
10 | HMRGLGDLEPVDSLGKIRIDDGHMVLAFGRHKGRHLSEVQAEDPRYIHWLLSPKGIEDVEAREKVKVYLEG | 0.0762
11 | HMHGEAEFLDATAVVMEKLNPGGLVKIKGEIWQAVSKDGHTIQEGEKVRVFERQGITLLVGHF | -0.876
12 | HMDFDLIAIFEEQFARALSPIEINIIKEWKNSNYSDDMIVKALKEAVKSQVFNFRYIERILINWSQNG | -1.9
13 | HMYYSERILTILEERGISPYRVSKETGISQSVFSNWKRKPTSRITAANLERLADYLGLPVEVLTG | -3.48
14 | HMSQLVTGVLRNLNDISEKIAAGKAVPEMLGRLENMQQMIANLKGNEGLIKSISILTRSAQDALR | -0.484
15 | HMNADKEALIAAAYRNSLIENFGTENVERYEERFNKWADKHDRQGMPMYPTIEKWMNEDNIA | 0.0631
16 | HMGASGVEVPDVAGMSTAQAVSSLEQKGFVVNRTESYDAGVEKGNVISQSPEGGTKAPNGSAVTIRISQGA | 0.831
17 | HMTSRFITTEEGTLYVDADGRKVSGWQTIDGSRYYFDEHGIRQSGTIEVNGETYVLDEDGVL | 0.0516
18 | HMETIHEMVNRLSSEGFIKNEDGIWYLRDRRGDGTKWLKNPFFESTGEKDAFALIDHLKVNDELLSKLRK | -0.621
19 | HMAQLSDMLTYLRKRKGLSQQELANTLKISRSAIGMYETGKREPDLETLEVFADFYNVDMNTLTGKA | -0.245
20 | HMPELSITDADIIVAGGRGMGSAENFGLIRELAGLLGAAVGASRVVVDAEWVDQKHLIGQTGK | -0.0455
21 | HMNSRAERKEAAKEAIRNLLREGMTFEELTGPWLEKRFAEEPFNRGARSWQMLISEIKEEPEFQHL | -0.014
22 | HMVAELAEMAENKNITSAQLALAWILKQSENIIPIPGTKRIKYLNENIEAVNVDLSKEDVENIENLLRKYP | -0.104
23 | HMRLSPTMVETLIAMLNRNAYPAYENNSRTFASLEERGLIQPDIEGNWSLTDTGHQTALKLLK | 0.463
24 | HMTDVRFISIPIQKEHPWNRKLVSELNLPPGTLLVFLRRTGENIVPNGKTMIQEGDVLVLGASAYR | -1.31
25 | HMDALPLIQLEKEIKDFISQGQKINAIKHYRNVMDRDFGTTISLKLAKYTVDALAQNIKVDLTKGYDQ | -1.01
26 | HMGIAEAKRVIVRTLHDVLGPEADFLTEKIDVAQTAAELRVHAEKYRDMLVDMGKPKKSAAFWEAFEAALP | -0.588
27 | HMSTQGRRIEILRHLTQTKKKADVNFVELGRTFGTSDTTIRKDLDWLIKNEYWENHGEWKPTQAGLNMI | 0.0518
28 | HMGTSSAEIAAELRAQIFAGELRPGEMLPSAREITGTWNVAIATASRVHALLRSEGLATPVPGVGTVVAT | 0.223
29 | HMVTDVDYSTFLSQVEEGKVESVTIEDGEILFKGKDENGEARWYITGEMNDPNLVERLKDKVPSFNAPA | 0.194
30 | HMSFNSQENKSVLWQFLLENNFFIGLSDKKFNKVKDIFEKNIQSISIVNDSISNKNKILIQKMMEELELL | -3.38
